Test results as given in patent publication US20210214435A1.

Experiments:
[1] = target: human GPVI-Fc (isoform and haplotype not stated) used in the competition ELISA (human) (UniProt Q9HCN6); test: Competition ELISA (MSD): human GPVI-Fc preincubated with Fab, then on coated CRP-XL (competitor)
[2] = target: human GPVI-Fc (isoform and haplotype not stated) used in the competition ELISA (human) (UniProt Q9HCN6); test: Competition ELISA (MSD): human GPVI-Fc preincubated with Fab, then on coated VitroCol (competitor)
[3] = target: human GPVI-Fc (isoform and haplotype not stated) used in the competition ELISA (human) (UniProt Q9HCN6); test: Competition ELISA (MSD): human GPVI-Fc preincubated with Fab, then on coated rat-tail collagen (competitor)
[4] = target: human GPVI on the cell surface of human platelets (human) (UniProt Q9HCN6); test: FACS on washed human platelets from PRP (one exemplary donor), PE-conjugated detection antibody, median fluorescence
[5] = target: human GPVI on the cell surface of human platelets (human) (UniProt Q9HCN6); test: FACS on washed human platelets from PRP, Fab directly conjugated with PE, average + SD of 3 donors, signal given as GPVI molecules per cell

IC50 [1] [nM]	Maximum inhibition at 200 nM Fab [%] [1] [%]	IC50 [2] [nM]	Maximum inhibition at 200 nM Fab [%] [2] [%]	IC50 [3] [nM]	Maximum inhibition at 200 nM Fab [%] [3] [%]	EC50 (read off the curve) [4] [µg/mL]	EC50 (read off the curve) [5] [µg/mL]	Binder
10.6	100	5.8	100	7	99	1		Reference Control Antibody RefFab #1 (humanized GPVI antibody of WO2011073954A2, SANOFI) (Fab, V domains shown) VH: EVQLLESGPGLVAPSGSLSITCTVSGFSLTGYGVNWVRQPPGKGLEWLGMIWGDGSTDYQSTLKSRLSISKDNSKSQVFLKMNSLRTDDTARYYCARDLPMDYWGLGTSVTVSS VL: DIQMTQSPSSLSASVGGRVTITCKASQDINKYIAWYQHKPGKGPSLLIHYTSTLQPGVPSRFSGSGSGRDYSFSISNLQPEDIATYYCLQYANLLTFGGGTKLEIKR
8.3	100	5.4	100	6.3	100	0.4		Fab #2 comprising a modified heavy chain constant region (Fab, V domains shown) VH: QVQLVESGGGLVKPGGSLRLSCAASGFSFSDHYMSWIRQAPGKGLEWVSSVGSEGKFIDYAASVKGRFTISRDNAKNSLYLQMNSLRAEDTAVYYCARHYREFRWHYYYFDYWGQGTLVTVSS VL: QSVLTQPPSVSGAPGQRVTISCTGSSSNIGAGYDVHWYQQLPGTAPKLLIYGNSNRPSGVPDRFSGSKSGTSASLAITGLQAEDEADYYCQSHDLGAHVWVFGGGTKLTVLG
8.7	100	5.6	99	6.3	99	0.4	0.5	Fab #3 comprising a modified heavy chain constant region (Fab, V domains shown) VH: QVQLVESGGGLVKPGGSLRLSCAASGFSFGDYYVSWIRQAPGKGLEWVSAIGGSGSAVQYAESVKGRFTISRDNAKNSLYLQMNSLRAEDTAVYYCARHYREFRWHYYYFDYWGQGTLVTVSS VL: QSVLTQPPSVSGAPGQRVTISCTGSSSNIGAGYDVHWYQQLPGTAPKLLIYGNSNRPSGVPDRFSGSKSGTSASLAITGLQAEDEADYYCQSHDLGAHVWVFGGGTKLTVLG
13.2	47	10.6	82	8.2	86	0.5	0.6	Fab #4 comprising a modified heavy chain constant region (Fab, V domains shown) VH: QVQLVQSGAEVKKPGASVKVSCKASGGAFTSSYMHWVRQAPGQGLEWMGIIEPTGASTLYAQRFQGRVTMTRDTSTSTVYMELSSLRSEDTAVYYCARTGIALPLGFDLWGQGTLVTVSS VL: QSVLTQPPSVSAAPGQKVTISCSGSSSNIGNNYVSWYQQLPGTAPKLLIYDNNKRPSGIPDRFSGSKSGTSATLGITGLQTEDEADYYCAAWSTRFRWVFGGGTKLTVLG
10.9	63	8.2	79	11	89	0.2		Fab #1 comprising a modified heavy chain constant region (Fab, V domains shown) VH: QVQLVQSGAEVKKPGASVKVSCKASGYTFTSHYMHWVRQAPGQGLEWMGLIEPSEGETEYAQRFQGRVTMTRDTSTSTVYMELSSLRSEDTAVYYCARDSSRSYPLGFDIWGQGTLVTVSS VL: QSVLTQPPSVSAAPGQKVTISCSGSSSNIGNNYVSWYQQLPGTAPKLLIYDNNKRPSGIPDRFSGSKSGTSATLGITGLQTEDEADYYCAAWDFRSSRWVFGGGTKLTVLG
